Our source for the IC50(µM), plaque assay, infection of MDCK cells values is patent US20100119588A1.

Some results are limits rather than exact numbers.

In the first assay the target is hemagglutinin H3 on influenza virus A/Aichi/2/68 strain (H3N2) (influenza virus A/Aichi/2/68 (H3N2)) (UniProt P03437). In words: cell-based or functional assay.
Substance C18-s2(1-5) (C18-ARLPR peptide amide) returned an IC50(µM), plaque assay, infection of MDCK cells of 1.55 µM. The same measure, in the same setting: under “C18-s2(1-8) (C18-ARLPRTMV peptide amide)” stands 1.4 µM.

Turning to C18-s2(r1-4) (C18-PLRA peptide amide), the IC50(µM), plaque assay, infection of MDCK cells is 14 µM. Same read-out and setting: under C18-s2(r1-5) (C18-RPLRA peptide amide) stands 0.94 µM.

The target is the same in a further assay. In words: cell-based or functional assay. This is another data set of the same source.
C18-s2(1-2) (C18-AR peptide amide) registered an IC50(µM), plaque assay, infection of MDCK cells of over 100 µM. Take C18-s2(1-3) (C18-ARL peptide amide): the IC50(µM), plaque assay, infection of MDCK cells is over 100 µM. Same read-out and setting: under C18-s2(1-4) (C18-ARLP peptide amide) stands 21 µM; under C18-s2(1-4)P4A (C18-ARLA peptide amide), over 100 µM; under C18-s2(1-5) (C18-ARLPR peptide amide), 3 µM. Substance C18-s2(1-6) (C18-ARLPRT peptide amide) yielded an IC50(µM), plaque assay, infection of MDCK cells of 5 µM. On the same count and under the same terms, under C18-s2(1-7) (C18-ARLPRTM peptide amide) stands 9.1 µM; under C18-s2(2-8) (C18-RLPRTMV peptide amide), over 100 µM. As to “C18-s2(5-11) (C18-RTMVHPK peptide amide)”, the IC50(µM), plaque assay, infection of MDCK cells was over 100 µM. On the same count and under the same terms, under “C18-s2(8-15) (C18-VHPKPAQP peptide amide)” stands 10.5 µM; under “C18-s2(r1-8) (C18-VMTRPLRA peptide amide)”, 226 µM.
